Data set [1] deals with Capu(1–321) (Drosophila) (UniProt Q24120).
For data set [2], the target named is Capu-NT, the N-terminal half of Cappuccino (aa 1–466) (Drosophila) (UniProt Q24120).
The target in data set [3] is Capu-tail–Alexa Fluor 488 (Drosophila). The experiment in a line: fluorescence polarisation. (Polarisation of emitted light reports the rotation of a fluorescent probe.)
Data set [4] deals with the molecule itself. The experiment in a line: AUC.
Data set [5] concerns the molecule itself. The experiment in a line: SEC-MALS. (Size exclusion chromatography separates by hydrodynamic size, large species first.)
The target of data set [6] is T1, Capu-CT, the C-terminal half of Cappuccino (aa 467–1059) (Drosophila, UniProt Q24120 467-1059).
T1 sequence (looked up): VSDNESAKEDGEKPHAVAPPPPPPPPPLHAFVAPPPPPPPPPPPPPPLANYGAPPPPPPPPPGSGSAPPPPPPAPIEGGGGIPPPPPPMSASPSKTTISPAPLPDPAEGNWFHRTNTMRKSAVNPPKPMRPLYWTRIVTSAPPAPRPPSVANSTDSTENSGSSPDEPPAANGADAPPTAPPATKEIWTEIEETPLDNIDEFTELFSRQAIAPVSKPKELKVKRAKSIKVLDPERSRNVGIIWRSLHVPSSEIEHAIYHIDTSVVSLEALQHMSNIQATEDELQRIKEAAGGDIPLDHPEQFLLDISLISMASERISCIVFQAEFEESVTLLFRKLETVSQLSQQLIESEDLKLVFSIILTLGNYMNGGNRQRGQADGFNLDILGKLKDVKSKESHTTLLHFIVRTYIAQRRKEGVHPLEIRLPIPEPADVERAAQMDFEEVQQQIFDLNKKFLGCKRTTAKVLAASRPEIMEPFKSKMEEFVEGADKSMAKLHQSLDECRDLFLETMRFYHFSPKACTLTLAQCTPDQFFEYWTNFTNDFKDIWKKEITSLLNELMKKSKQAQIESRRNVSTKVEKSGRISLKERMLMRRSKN
The experiment in a line: cell-based or functional assay.

In the case of “Capu-tail (monomeric peptide cleaved from GST–Capu-tail)”, the EC50 of relief of Capu(1–321) inhibition of Capu-CT in the pyrene-actin assay in data set [1] came out at 3000 nM.

Regarding “GST–Capu-tail (dimeric) (domain or fragment)”, the Kd calculated from the pyrene-actin competition assay (Vinson analysis) in data set [2] was 167 nM.

B1: Capu-NT, the N-terminal half of Cappuccino (aa 1–466) (domain or fragment, Drosophila, UniProt Q24120 1-466, looked up)
chain: MALQLGKKLAQVLGSGAGSPLTPGTMEPCAAGSGSPLANGELFNVSKAKKVELQNLSSRFTAAVTQTPPGVTSSTPNESGVTGPAGPLGATTSSPSLETQSTVIISFKSSQTPVQSQTNSAASENVEDDTAPLPLPPPPPGFGTPTTPLLSSNVLKKVASFTVEKSSAGNNSSNPPNLCPTSDETTLLATPCSSSLTVATLPPEIAVGAAAGGVAGGAGSRRGSSYVPEKLSFAAYEKFEGQMLIKWLISTMQSNPKSSSGDANQELFNTLALQFCNNLKYVGVLKQISNEHLDCGFSPYEMYQWTHTEQPTTSLPLTPGKLDKVAAWPFSSTPSGIRALESASLASLGAGGVAGSLATIATASTASSDNQKTLQQILKKRLLNCTTLAEVHAVVNELLSSVDEPPRRPSKRCVNLTELLNASEATVYEYNKTGAEGCVKSFTDAETQTESEDCEGTCKCGQSSTK
One may read the Kd as the concentration at which binding is half-saturated. Read a high Kd as a looser complex. As usually defined, the stoichiometry N is the number of molecules, sites or subunits per partner or assembly. B1: the Kd in data set [3] is 300 nM. Also, in data set [4], the Kd stood at 245 nM and the “stoichiometry N” value is 2.

B2: Capu(1–321) (domain or fragment, Drosophila, UniProt Q24120 1-321, looked up)
chain: MALQLGKKLAQVLGSGAGSPLTPGTMEPCAAGSGSPLANGELFNVSKAKKVELQNLSSRFTAAVTQTPPGVTSSTPNESGVTGPAGPLGATTSSPSLETQSTVIISFKSSQTPVQSQTNSAASENVEDDTAPLPLPPPPPGFGTPTTPLLSSNVLKKVASFTVEKSSAGNNSSNPPNLCPTSDETTLLATPCSSSLTVATLPPEIAVGAAAGGVAGGAGSRRGSSYVPEKLSFAAYEKFEGQMLIKWLISTMQSNPKSSSGDANQELFNTLALQFCNNLKYVGVLKQISNEHLDCGFSPYEMYQWTHTEQPTTSLPLTPGK
Turning to B2, in data set [5], the “stoichiometry N” value worked out at 2. In data set [3], the Kd turned out to be 300 nM.

B3: Capu(1–222) (domain or fragment, Drosophila, UniProt Q24120 1-222, looked up)
chain: MALQLGKKLAQVLGSGAGSPLTPGTMEPCAAGSGSPLANGELFNVSKAKKVELQNLSSRFTAAVTQTPPGVTSSTPNESGVTGPAGPLGATTSSPSLETQSTVIISFKSSQTPVQSQTNSAASENVEDDTAPLPLPPPPPGFGTPTTPLLSSNVLKKVASFTVEKSSAGNNSSNPPNLCPTSDETTLLATPCSSSLTVATLPPEIAVGAAAGGVAGGAGSRR
Turning to B3, the “inhibition activity in the pyrene-actin assay relative to Capu-NT, at 100 nM” value in data set [6] was roughly 40%. The molecule also had a Kd in data set [3] of 4800 nM.

Source of the values: paper PMC3459857 (Molecular Biology of the Cell, 2012).
